Legend:
[1] = tested on: T1, Biosyn#1 (cov19) Dabcyl-TSAVLQSGFRK-EDANS
T1 sequence: TSAVLQSGFRK

[2] = tested on: T2, Biosyn#6 (229e) Dabcyl-YGSTLQAGLRK-EDANS
T2 sequence: YGSTLQAGLRK

[3] = tested on: Biosyn#7 (HRV) Dabcyl-LEALFQGP[Asp-(EDANS) SQ [Amide]

Human Rhinovirus (HRV) 3C protease
% Enz activity: 1% | Enzymatic activity, Slope; 5 uM substrate, 150 ng/reaction enzyme: 87 RFU/min | enzymatic activity, in words: Complete specificity (no cross reactivity) was observed for the most abundant common cold virus, HRV. | % Enz activity [1]: -1% | Enzymatic activity, Slope; 5 uM substrate, 150 ng/reaction enzyme [1]: -12 RFU/min | enzymatic activity, in words [1]: Complete specificity (no cross reactivity) was observed for the most abundant common cold virus, HRV. | % Enz activity [2]: -7% | Enzymatic activity, Slope; 5 uM substrate, 150 ng/reaction enzyme [2]: 44 RFU/min | enzymatic activity, in words [2]: Complete specificity (no cross reactivity) was observed for the most abundant common cold virus, HRV. | % Enz activity [3]: 100% | Enzymatic activity, Slope; 5 uM substrate, 150 ng/reaction enzyme [3]: 1040 RFU/min | enzymatic activity, in words [3]: The Biosyn #7 substrate was specific for HRV.

— patent publication US20230090502
